Experimental data taken from patent publication US20240342199.

Key:
[1] = molecular target: Recombinant CypD Ser123→Ala mutant (UniProt P30405)
[2] = molecular target: Recombinant GST-CypD (wild type) (UniProt P30405)
Sequence of Recombinant GST-CypD (wild type) (P30405 whole entry): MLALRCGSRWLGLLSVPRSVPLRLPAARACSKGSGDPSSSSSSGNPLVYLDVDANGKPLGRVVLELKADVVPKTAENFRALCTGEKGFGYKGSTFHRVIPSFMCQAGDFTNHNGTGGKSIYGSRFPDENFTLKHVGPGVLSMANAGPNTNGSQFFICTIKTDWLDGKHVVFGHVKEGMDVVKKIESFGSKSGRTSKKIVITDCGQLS

Sequence of Recombinant CypD Ser123→Ala mutant (P30405 whole entry, looked up, change not shown): as the sequence (P30405 whole entry) above

With active Akt1 the “kinase assay with recombinant proteins, autoradiography” value [1] was “readily phosphorylated” and the “kinase assay with recombinant proteins, autoradiography” value [2] was “readily phosphorylated”.
